Source: publication PMC3870051 (Heart rhythm : the official journal of the Heart Rhythm …, 2013)

Molecular target: NaV1.5 C-terminal domain (CTD), purified recombinant (UniProt Q14524 1773-1940)
Test: ITC

Sequence of NaV1.5 C-terminal domain (CTD), purified recombinant (Q14524 1773-1940): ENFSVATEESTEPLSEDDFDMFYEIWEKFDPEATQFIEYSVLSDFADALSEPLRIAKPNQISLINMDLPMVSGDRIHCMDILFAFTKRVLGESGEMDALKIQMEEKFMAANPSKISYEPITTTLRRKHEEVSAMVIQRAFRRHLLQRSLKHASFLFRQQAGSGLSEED

B1: Q7R-FGF12 (human FGF12-B with Q7R), purified recombinant (natural protein, UniProt P61328-2 1-181, looked up)
chain: MESKEPRLKGIVTRLFSQQGYFLQMHPDGTIDGTKDENSDYTLFNLIPVGLRVVAIQGVKASLYVAMNGEGYLYSSDVFTPECKFKESVFENYYVIYSSTLYRQQESGRAWFLGLNKEGQIMKGNRVKKTKPSSHFVPKPIEVCMYREPSLHEIGEKQGRSRKSSGTPTMNGGKVVNQDST
  fold reduction in binding affinity against WT-FGF12: 2 fold
